Test results taken from paper PMC314469, “Protein Interaction Networks by Proteome Peptide Scanning” (PLoS Biology, 2004).

T1: Boi2 SH3 (BOI2_YEAST), P39969
T1 chain: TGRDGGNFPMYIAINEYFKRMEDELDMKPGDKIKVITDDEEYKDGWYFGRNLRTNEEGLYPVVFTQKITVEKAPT

T2: Rvs167 SH3 (RV167_YEAST), P39743
T2 chain: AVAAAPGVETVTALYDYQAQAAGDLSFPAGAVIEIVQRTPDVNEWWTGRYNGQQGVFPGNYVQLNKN

T3: Boi1 SH3 (BOI1_YEAST), P38041
T3 chain: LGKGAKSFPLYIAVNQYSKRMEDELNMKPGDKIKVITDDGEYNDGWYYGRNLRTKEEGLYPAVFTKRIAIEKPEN

T4: Myo5 SH3 (MYO5_YEAST), Q04439
T4 chain: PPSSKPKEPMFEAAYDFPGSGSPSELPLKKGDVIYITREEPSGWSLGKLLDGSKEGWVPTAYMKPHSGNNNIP

T5: Yhr016c SH3 (YSC84_YEAST), P32793
T5 chain: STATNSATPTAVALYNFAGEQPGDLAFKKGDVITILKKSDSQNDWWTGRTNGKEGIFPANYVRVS

T6: Yfr024 SH3 (LSB3_YEAST), P43603
T6 chain: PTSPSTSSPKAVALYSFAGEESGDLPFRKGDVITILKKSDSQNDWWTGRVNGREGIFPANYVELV


Columns and labels:
Assay in all cases: SPOT array
[1] = biological target: T1, Boi2 SH3 (BOI2_YEAST), P39969
[2] = biological target: T2, Rvs167 SH3 (RV167_YEAST), P39743
[3] = biological target: T3, Boi1 SH3 (BOI1_YEAST), P38041
[4] = biological target: Sho1 SH3 (SHO1_YEAST), P40073
[5] = biological target: T4, Myo5 SH3 (MYO5_YEAST), Q04439
[6] = biological target: T5, Yhr016c SH3 (YSC84_YEAST), P32793
[7] = biological target: T6, Yfr024 SH3 (LSB3_YEAST), P43603

Sequence of Sho1 SH3 (SHO1_YEAST), P40073 (P40073 295-366): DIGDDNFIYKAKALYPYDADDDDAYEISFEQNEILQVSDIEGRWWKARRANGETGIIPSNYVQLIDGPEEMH

Binder | normalised SPOT signal, Boehringer light units (BLU); mean over the file's lines of this peptide [1] | normalised SPOT signal, Boehringer light units (BLU); mean over the file's lines of this peptide [2] | normalised SPOT signal, Boehringer light units (BLU); mean over the file's lines of this peptide [3] | normalised SPOT signal, Boehringer light units (BLU); mean over the file's lines of this peptide [4] | normalised SPOT signal, Boehringer light units (BLU); mean over the file's lines of this peptide [5] | normalised SPOT signal, Boehringer light units (BLU); mean over the file's lines of this peptide [6] | normalised SPOT signal, Boehringer light units (BLU); mean over the file's lines of this peptide [7]
VHFYKSLPQGPAPA [YDR377W 34-47] | 44.6 | 25.6 | 49.8 | 5350 | 510 | 21.8 | 90.7
VHVLKYAPDEPNSL [YDR301W 1194-1207] | 29.5 | 34.4 | 104 | 19.6 | 191 | 25.5 | 3.3
VIIGKTTPISPDEE [YOR151C 910-923] | 19.8 | 32.9 | 0 | 36.1 | 54 | 6.3 | 0
VKATKWPPKLPEIQ [YMR239C 193-206] | 0.8 | 9.9 | 170 | 25.7 | 57.4 | 49.9 | 43.6
VKKEKKPPKIPKKV [YPR104C 435-448] | 8.9 | 71.6 | 1300 | 71.6 | 534 | 32.9 | 782
VKRPRLNPFLPRDE [YGL097W 70-83] | 2400 | 4070 | 135000 | 119 | 1190 | 348 | 2420
VLFMKGTPEFPKSG [YPL059W 48-61] | 108 | 267 | 151 | 51.5 | 213 | 128 | 666
VLGPKYDPKSPEEH [YNL163C 601-614] | 1.9 | 12.7 | 28.8 | 45.5 | 157 | 22.7 | -0
VLKIKPLPYKPRGR [YER093C 584-597] | 34.8 | 25 | 1590 | 3410 | 647 | 27.3 | 426
VLTVKMSPSLPDEI [YCR030C 726-739] | 28.2 | 4.4 | 173 | 49.5 | 230 | 20.6 | 444
VNIGRRSPYLPLQP [YLR212C 354-367] | 19.1 | 75.4 | 1040 | 94 | 476 | 19.5 | 284
VNTPRSVPNSPNDG [YGL209W 201-214] | 28 | 59.3 | 28.6 | 47.4 | 65 | 208 | 662
VPIDKKSPFYPGLD [YCL055W 187-200] | 31.1 | 59.1 | 152 | 20.8 | 150 | 20.7 | 32.1
